Bridge positions count the residues as written; N and C are the ends. Square brackets hold non-standard residues; d marks the D form. Ends that are not written are not given here. S5 = C=CCCC[C@](C)(N)C(=O)O
Target: T1, VLCAD (Mus musculus, UniProt P50544)
T1 construct: As for native VLCAD from MEF lysates; endogenous in cells; host or cells: SV-40-transformed wild-type mouse embryonic fibroblasts (lysate)
T1 sequence (P50544 42-656): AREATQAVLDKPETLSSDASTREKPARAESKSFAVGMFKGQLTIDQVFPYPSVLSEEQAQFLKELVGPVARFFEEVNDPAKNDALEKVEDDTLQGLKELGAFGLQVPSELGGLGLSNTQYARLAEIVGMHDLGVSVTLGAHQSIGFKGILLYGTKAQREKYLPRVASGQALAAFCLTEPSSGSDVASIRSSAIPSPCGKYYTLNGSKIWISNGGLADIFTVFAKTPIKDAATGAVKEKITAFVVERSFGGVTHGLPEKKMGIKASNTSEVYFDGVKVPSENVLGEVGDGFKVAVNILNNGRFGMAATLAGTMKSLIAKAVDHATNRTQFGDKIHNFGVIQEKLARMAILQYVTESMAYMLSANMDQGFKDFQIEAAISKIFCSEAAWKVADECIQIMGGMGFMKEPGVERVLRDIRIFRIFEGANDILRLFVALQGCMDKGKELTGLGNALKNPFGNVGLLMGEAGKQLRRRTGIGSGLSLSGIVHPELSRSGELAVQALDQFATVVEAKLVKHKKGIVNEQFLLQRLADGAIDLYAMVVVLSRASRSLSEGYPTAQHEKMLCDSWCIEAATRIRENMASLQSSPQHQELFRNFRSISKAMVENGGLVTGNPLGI
Experiment: Biotinylated SAHB streptavidin pulldown from MEF lysates with MS-based protein identification
Type: binding
Details: wild-type MEF lysates; three biological replicates; thresholds fold change >8 and p<0.005 versus vehicle
Description: An exploratory proteomics analysis was conducted to identify proteins that interact with the MCL-1 BH3 domain helix. An extensive library of MCL-1 stapled BH3 peptides (FIG. 2) was generated to both identify novel protein interactors by mass spectrometry and then deploy the stapled peptide constructs as novel probes to dissect and pharmacologically modulate the identified protein interactors and associated signaling pathways. As an example, an N-terminally biotinylated stapled peptide designed based on the sequence of MCL-1's BH3 domain (Btn-MCL-1 SAHBD), or vehicle, was incubated with wild-type mouse embryonic fibroblast (MEF) lysates, followed by high stringency streptavidin capture. To validate the proteomics workflow and ensure that Btn-MCL-1 SAHBD could, in fact, engage protein interactors in a lysate, eluates were first run on a gel for anti-MCL-1 Western analysis. […]
Wild-type MEFs were trypsinized, washed once with cold PBS, and lysed on ice with NP-40 lysis buffer (50 mM Tris, pH 7.4, 150 mM NaCl, 0.5% (v/v) NP-40, complete protease inhibitor pellet (Roche)) using 1 ml of lysis buffer for every 10 million cells lysed. Cellular debris was pelleted at 14,000 g for 10 min at 4° C., and the supernatant was quantified using the BCA Protein Assay Kit (Thermo Fisher Scientific). […]

MCL-1 SAHBD: hydrocarbon-stapled peptide mimicking the MCL-1 BH3 domain (Stabilized Alpha-Helix of BCL-2 Domain), SEQ ID NO:19 (RKALETLRRVGDGV[S5]RNH[S5]TAF; staple 15-19)
VLCAD identified by MS in pulldown eluates: repeatedly identified as a high stringency interactor
